Measured values taken from patent publication US20040005333A1 (HER MAJESTY THE QUEEN IN RIGHT OF CANADA AS REPRESENTED BY …, published 2004).

B1: mA116huFc Ab (Fc fusion)
chain: MRGSHHHHHHGMASMTGGQQMGRDLYDDDDKDRWGSELEICSWYHGIPLVVPFYAAQPAMAQVQLQESGPELVKPGASVKISCKASGYTFTDYHVHWVKGKPGQGLEWIGMTYPGFDNTNYSETFKGKATLTVDTSSNTVYMQLSSLTSEDTAVYFCARGVGLDYWGQGTTVTVSSGGGGSGGGGSGGGGSDIELTQSPNSLSTSIGDRIRITCKASQDVDTAVGWYQQRPGQSPKLLIFWSSTRHTGVPDRFTGSGSGTDFTLTISNVQSEDLADYFCHQYSSYPFTFGSGTKLEIKRAAAGCLVKDYFPEPVTVSWNSGALTSGVHTFPAVLQSSGLYSLSSVVTVPSSSLGTQTYICNVNHKPSNTKVDKRVEPKSCDKTHTCPPCPAPELLGGPSVFLFPPKPKDTLMISRTPEVTCVVVDVSHEDPEVKFNWYVDGVEVHNAKTKPREEQYNSTYRVVSVLTVLHQDWLNGKEYKCKVSNKALPAPIEKTISKAKGQPREPQVYTLPPSRDELTKNQVSLTCLVKGFYPSDIAVEWESNGQPENNYKTTPPVLDSDGSFFLYSKLTVDKSRWQQGNVFSCSVMHEALHNHYTQKSLIRLLTKPERKLSWLLPPLSNN
notes: also called recombinant mA116huFc Ab; 70 kDa protein
B2: mA116 scFv Ab (scFv)
scFv: QVQLQESGPELVKPGASVKISCKASGYTFTDYHVHWVKGKPGQGLEWIGMTYPGFDNTNYSETFKGKATLTVDTSSNTVYMQLSSLTSEDTAVYFCARGVGLDYWGQGTTVTVSSGGGGSGGGGSGGGGSDIELTQSPNSLSTSIGDRIRITCKASQDVDTAVGWYQQRPGQSPKLLIFWSSTRHTGVPDRFTGSGSGTDFTLTISNVQSEDLADYFCHQYSSYPFTFGSGTKLEIK
notes: also called repaired A116 scFv Ab

Legend:
human C1q protein = target: T1, human C1q protein (human, UniProt P02745 23-245; P02746 28-253; P02747 29-245); test: ELISA on strips coated with human C1q, HRP-anti-human Ab detection
T1 construct: also called human C1q complement

protein G agarose = protein G agarose (UniProt P06654 228-352); test: protein G agarose precipitation, SDS-PAGE with Coomassie staining
protein G agarose, sequence (P06654 228-352): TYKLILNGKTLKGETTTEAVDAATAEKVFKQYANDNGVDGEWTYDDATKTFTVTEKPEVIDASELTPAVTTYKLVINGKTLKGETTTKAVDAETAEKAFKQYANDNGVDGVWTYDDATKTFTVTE

T1 sequence (P02745 23-245 limits assumed, chain 1 of 3): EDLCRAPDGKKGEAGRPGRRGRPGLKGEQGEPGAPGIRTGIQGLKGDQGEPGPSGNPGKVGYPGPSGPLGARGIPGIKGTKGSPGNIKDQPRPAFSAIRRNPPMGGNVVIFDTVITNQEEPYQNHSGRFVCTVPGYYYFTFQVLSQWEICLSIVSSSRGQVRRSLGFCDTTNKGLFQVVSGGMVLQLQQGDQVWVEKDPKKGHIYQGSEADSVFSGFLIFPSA
T1 sequence (P02746 28-253 limits assumed, chain 2 of 3): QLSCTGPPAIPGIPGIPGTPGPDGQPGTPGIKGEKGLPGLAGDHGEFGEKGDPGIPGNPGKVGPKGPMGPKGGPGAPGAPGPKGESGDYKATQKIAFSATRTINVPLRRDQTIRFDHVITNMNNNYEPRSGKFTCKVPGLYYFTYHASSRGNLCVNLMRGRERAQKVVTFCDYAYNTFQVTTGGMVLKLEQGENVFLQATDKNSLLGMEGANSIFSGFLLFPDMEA
T1 sequence (P02747 29-245 limits assumed, chain 3 of 3): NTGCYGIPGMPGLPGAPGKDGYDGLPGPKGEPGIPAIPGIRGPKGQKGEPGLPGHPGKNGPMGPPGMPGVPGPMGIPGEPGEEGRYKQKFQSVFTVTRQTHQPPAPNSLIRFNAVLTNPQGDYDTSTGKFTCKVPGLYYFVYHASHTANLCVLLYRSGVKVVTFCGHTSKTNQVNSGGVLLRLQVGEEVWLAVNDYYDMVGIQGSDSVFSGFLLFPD

| Binder | binding result (human C1q protein) | binding result (protein G agarose) |
| --- | --- | --- |
| B1 | binds | – |
| B2 | – | no binding |
